According to paper PMC6303335 (2018):

Molecular target: E194, the type I interferon binding protein (IFNα/βBP) from ectromelia virus (ECTV) Naval strain (Ectromelia virus, strain Naval)
Assay: SPR

B1: mouse IFNα subtype A (ligand)
chain: CDLPHTYNLRNKRALKVLAQMRRLPFLSCLKDRQDFGFPLEKVDNQQIQKAQAIPVLRDLTQQTLNLFTSKASSAAWNATLLDSFCNDLHQQLNDLQTCLMQQVGVQEPPLTQEDALLAVRKYFHRITVYLREKKHSPCAWEVVRAEVWRALSSSVNLLPRLSEEKE
With B1 the koff was 0.000331 s⁻¹.
